± gives the uncertainty stated by the source.
Test: self-splicing fitness, log relative to wild type (ln ratio); higher = more splicing; Tetrahymena group I intron in knt gene, E. coli kanamycin selection, DiMSum; sequences stand for … in CUCUCU…GGAGGGAAAAGUUAUCAGGCAUGCACCUGGUAGCUAGUCUUUAAACCAAUAGAUUGCAUCGGUUUAAAAGGCAAGACCGUCAAAUUGCGGGAAAGGGGUCAACAGCCGUUCAGUACCAAGUCUCAGGGGAAACUUUGAGAUGGCCUUGCAAAGGGUAUGGUAAUAAGCUGACGGACAUGGUCCUAACCACGCAGCCAAGUCCUAAGUCAACAGAUCUUCUGUUGAUAUGGAUGCAGUUCACAGACUAAAUGUCGGUCGGGGAAGAUGUAUUCUUCUCAUAAGAUAUAGUCGGACCUCUCCUUAAUGGGAGCUAGCGGAUGAAGUGAUGCAACACUGGAGCCGCUGGGAACUAAUUUGUAUGCGAAAGUAUAUUGAUUAGUUUUGGAGUACUCGUGGUCG
How it was run: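 A randomised library covering all eight P1ex-region intron nucleotides was built with the intron in the knt kanamycin-resistance gene on pET-22b(+) and held in E. coli BL21(DE3). Cells were grown overnight at 37°C or 30°C on LB agar, with or without 25 μg/mL kanamycin, plus 100 μg/mL carbenicillin, 50 μM IPTG and 0.2% rhamnose, and pooled colonies were amplicon-sequenced on an Illumina HiSeq 2500. DiMSum fitness is the error-weighted combination of wild-type-normalised replicate fold changes, kanamycin versus none.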

Row | Sequence | self-splicing fitness (ln) (30 °C) | self-splicing fitness (ln) (37 °C)
1 | ACAAAGCAAUAUUACGGUCU | -0.435 ± 0.056 | 0.237 ± 0.079
2 | UUGUAGCAAUAUUACGCCAA | -1.22 ± 0.13 | -0.297 ± 0.13
3 | UGCCAGCAAUAUUACGGCUC | -2.89 ± 0.21 | -1.48 ± 0.23
4 | UGAGAGCAAUAUUACGAGGC | -2.98 ± 0.22 | -2.17 ± 0.33
5 | GUCCAGCAAUAUUACGCUGC | -1.85 ± 0.34 | 0.221 ± 0.36
6 | GACCAGCAAUAUUACGCUGG | -3.16 ± 0.13 | -2.95 ± 0.21
7 | CAGGAGCAAUAUUACGAUGC |  | -2.83 ± 0.26
8 | CGUUAGCAAUAUUACGGCGA | -1.6 ± 0.11 | -1.61 ± 0.11
9 | GCAAAGCAAUAUUACGCUAA | -2.19 ± 0.14 | -1.29 ± 0.12
10 | AAGGAGCAAUAUUACGUUAG | -3.67 ± 0.18 | -2.95 ± 0.22
11 | CACGAGCAAUAUUACGACUA | -2.71 ± 0.21 | -1.85 ± 0.15
12 | UGAAAGCAAUAUUACGUACU | -0.121 ± 0.089 | -0.476 ± 0.091
13 | CCGGAGCAAUAUUACGAGUU | -3.65 ± 0.2 | -2.76 ± 0.29
14 | UUCCAGCAAUAUUACGGAAA | -1.86 ± 0.13 | -1.34 ± 0.11
15 | UUGUAGCAAUAUUACGGCCG | -0.356 ± 0.17 | -0.462 ± 0.22
16 | UGUCAGCAAUAUUACGAAGU | -4.02 ± 0.46 | -1.93 ± 0.24
17 | UCCCAGCAAUAUUACGUAAG | -3.88 ± 0.18 | -1.97 ± 0.17
18 | AGGUAGCAAUAUUACGUUCA | -0.556 ± 0.014 | -0.256 ± 0.033
19 | UUUCAGCAAUAUUACGUUUU | -3.86 ± 0.23 | -1.13 ± 0.14
20 | CUGAAGCAAUAUUACGCGGG | -1.65 ± 0.17 | -1.83 ± 0.19

Row | Sequence | self-splicing fitness (ln) (30 °C) | self-splicing fitness (ln) (37 °C)
21 | CUCUAGCAAUAUUACGGUCC | -2.84 ± 0.33 | -2.53 ± 0.36
22 | CGCCAGCAAUAUUACGGAUC | -1.24 ± 0.22 | -1.38 ± 0.47
23 | UCGUAGCAAUAUUACGGGUC | -3.02 ± 0.26 | -4.36 ± 0.46
24 | UUUUAGCAAUAUUACGUAGU | -1.9 ± 0.37 | 
25 | UCCUAGCAAUAUUACGCCUC | -2.62 ± 0.27 | -2.29 ± 0.39
26 | GUUCAGCAAUAUUACGGCCG | -2.57 ± 0.24 | -0.72 ± 0.17
27 | UCAGAGCAAUAUUACGCUUU | -2.7 ± 0.32 | -2.84 ± 0.48
28 | ACCAAGCAAUAUUACGGAUA | -2.56 ± 0.14 | -1.56 ± 0.12
29 | UGUGAGCAAUAUUACGUUGC |  | -1.57 ± 0.37
30 | GGAUAGCAAUAUUACGCCGG |  | -1.28 ± 0.42
31 | GUUAAGCAAUAUUACGUCCU | -0.303 ± 0.081 | 0.0564 ± 0.083
32 | UGUCAGCAAUAUUACGGUUC | -3.07 ± 0.2 | -1.63 ± 0.24
33 | AUAGAGCAAUAUUACGAGGU | -3.58 ± 0.44 | -2.94 ± 0.27
34 | AAGAAGCAAUAUUACGGUCA | -0.625 ± 0.088 | 0.197 ± 0.1
35 | CCGGAGCAAUAUUACGGCGG | -1.49 ± 0.15 | -2.15 ± 0.34
36 | UGUUAGCAAUAUUACGUCAU | -2.42 ± 0.3 | -1.35 ± 0.24
37 | AGUAAGCAAUAUUACGUUCU | -0.729 ± 0.085 | -1.21 ± 0.11
38 | UUGAAGCAAUAUUACGCACG | -0.255 ± 0.15 | -0.521 ± 0.15
39 | UCAGAGCAAUAUUACGUACC | -3.69 ± 0.25 | -1.59 ± 0.37
